In PMC3323627:

Target: Tula virus (TULV) nonstructural protein NSs, strain Lodz, in infected cells (Tula virus, strain Lodz)
Assay: FRET or BRET

ACBD3 protein, endogenous in common vole (Microtus arvalis) kidney cells (natural protein)
FRET efficiency: 20%
